Measured values: the supplement of paper PMC7125110
± gives the standard error. For some assays here: Variants at the floor of the assay were thinned out.

B1: glmS ribozyme (parent)
chain: AUAAAAGCGCCAGAACUACAGAAAUGUAGUUGACGAGGAGGAGGUUUAUCGAAUUUUCGGCGGAUGCCUCCAAA

Tests used:
Details in all cases: with glucosamine-6-phosphate
[1] = variants of: B1; experiment: kcat; higher = faster cleavage; RNA array
Summary of the method: (§1)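 A hybridised Cy3 probe tracked barcoded ribozyme variants, transcribed in situ by E. coli RNA polymerase on sequenced MiSeq chips, at 37 °C. The variants received 40 μM to 10 mM glucosamine-6-phosphate in HEPES/KCl/Mg(OAc)2 buffer. kobs came from decay fits and kcat and KM from weighted Michaelis–Menten fits.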

[2] = variants of: B1; experiment: self-cleavage kobs at 640 uM GlcN6P; higher = faster cleavage; RNA array
Summary of the method: as §1

[3] = variants of: B1; experiment: self-cleavage kobs at 2500 uM GlcN6P; higher = faster cleavage; RNA array
Summary of the method: as §1

[4] = variants of: B1; experiment: self-cleavage kobs at 10000 uM GlcN6P; higher = faster cleavage; RNA array
Summary of the method: as §1

[5] = variants of: B1; experiment: KM; higher = weaker cofactor use; RNA array
Summary of the method: as §1

[6] = variants of: B1; experiment: self-cleavage kobs at 40 uM GlcN6P; higher = faster cleavage; RNA array
Summary of the method: as §1

[7] = variants of: B1; experiment: self-cleavage kobs at 160 uM GlcN6P; higher = faster cleavage; RNA array
Summary of the method: as §1

Variant | kcat [1] [s⁻¹] | self-cleavage kobs at 640 uM GlcN6P [2] [s⁻¹] | self-cleavage kobs at 2500 uM GlcN6P [3] [s⁻¹] | self-cleavage kobs at 10000 uM GlcN6P [4] [s⁻¹] | KM [5] [µM] | self-cleavage kobs at 40 uM GlcN6P [6] [s⁻¹] | self-cleavage kobs at 160 uM GlcN6P [7] [s⁻¹]
AUAAAAGCGCCAGCACUACAGAAAUGUAGUUGUCGAGGAGGAGGUUUAUUGAAUUUUCGGCGGAUGCCUACAAA [A14C A33U C50U C70A] | 3.25e-05 ± 1.4e-05 | 4.2e-05 ± 1.9e-05 |  |  |  |  | 
AUAAAAGCGCCAGAACUACAGAAAUGUAGUUGACGAGGAGGAGGUUUGUCGAAUUAUCGGCGGAUGCCUCCAAA [A48G U56A] | 6.12e-05 ± 9.5e-06 |  | 4.68e-05 ± 7.6e-06 | 5.17e-05 ± 8.2e-06 |  |  | 
AUAAAAGCGCCAGAAUUACAGAAAUGUAGUUGACGAGGAGGAGGUUUAUCGAAUUUUCGGCGGAGGCCUCCAAA [C16U U65G] | 0.0044 ± 0.00062 | 0.000544 ± 7.2e-05 | 0.00147 ± 0.00018 | 0.0032 ± 0.00028 | 4300 ± 840 | 5.04e-05 ± 6.5e-06 | 0.000151 ± 1.7e-05
AUAAAAGCGCCAGAACUACAGAAAUGUAGUUAACGAGGAGUAGGUUUAUCGUAUUUUCGGCGGAUGCCUCCAAA [G32A G41U A52U] | < 1e-05 | < 1e-05 |  |  | 1010 ± 120 | < 1e-05 | 
AUAAAAGCGCCAGAACUACAGAAAUGUAGUUGACGAGGAGGAGGUUUAUCGUAUUUUCGGCGGAUGGCUGCAAA [A52U C67G C70G] | 2.5e-05 ± 7.5e-06 |  |  |  |  |  | 
AUAAAAGCGCCAGAACUACAGAAAUGUAGUUGAAGAGGAGGAGGUUUAUCGAAUUUUCGGCGGAUGGCUCCAAA [C34A C67G] | < 1e-05 | < 1e-05 | < 1e-05 |  |  | < 1e-05 | < 1e-05
AUAAAAGCGCCAGAACUACAGAAAUGUAGUUGACGAGGAGGAGGCUUAUCGAAUUUUCGGCGGAUGUAUCCAAA [U45C C67U C68A] | 4.01e-05 ± 3.3e-06 |  |  |  | 533 ± 230 |  | 
AUAAAAACGCCAGAACUACAGAAAUGUAGUUGACGAGGAGGAGGUUUAUCGAAUUUUCGGCGGAUGCCCCCAAA [G7A U69C] | < 1e-05 |  |  |  |  |  | < 1e-05
AUAAAAGCGCCAGAACUACAGAAAUGUAGUUGACGAGGAGGAGGUUUAUCGACUUUUCGGCGGAUGGCUCCAAA [A53C C67G] | 3.47e-05 ± 4.1e-06 |  | 3.42e-05 ± 9e-06 | 3.14e-05 ± 6.5e-06 |  | < 1e-05 | 
AUAAAAGCGUCAGAACUACAGAAAUGUAGUUGACGAGGAGGAGGUUUAUCGAAUUUUCGGCGGAUGCCUCUAAA [C10U C71U] | 3.48e-05 ± 5.8e-06 |  | 1.75e-05 ± 5.3e-06 | 3.05e-05 ± 5.4e-06 |  | < 1e-05 | 
AUAAAAGCGCCAGGAAUACAGAAAUGUAGUUGACGAGGAGGAGGUUUAUCGAAUUUUCGGCGGAUGCCUCCAAA [A14G C16A] | 0.00509 ± 0.0016 | 0.0021 ± 0.00042 | 0.00276 ± 0.00082 | 0.00789 ± 0.0017 | 847 ± 380 | 0.000249 ± 4.2e-05 | 0.000745 ± 0.00023
AUAAAAGCGCCAGACCUACAGAAAUGUAGUUGACGAGGAGGAGGUUUAUCGAAUUUUCGGCGGCUGCCUCCAAA [A15C A64C] | 1.33e-05 ± 4.6e-06 |  |  |  |  |  | 
AUAAAAGCGCCAGAACUACAGAAAUGUAGUUGACGAGGAGGGGGUUUAUCGAAUUUUCGGCGGAUGCCUCCAAA [A42G] | 0.0432 ± 0.015 | 0.0128 ± 0.00054 | 0.0238 ± 0.0016 | 0.0639 ± 0.0036 | 1270 ± 530 | 0.00143 ± 3.4e-05 | 0.00406 ± 0.00021
AUAAAAGCGCCAGAACUACAGAAAUGUAGUUGACGAGGAGGAGGUUUAUCGAAUUUUCAGCGGAUGCCUCGAAA [G59A C71G] | < 1e-05 |  |  |  |  | < 1e-05 | 
AUAAAAGCGCCAGAAUUACAGAAAUGUAAUUGACGAGGAGGAGGUUUAUCGAAUUUUCGGCGGAUACCUCCAAA [C16U G29A G66A] | 0.00966 ± 0.0019 | 0.00534 ± 0.001 | 0.00654 ± 0.0021 | 0.0139 ± 0.0063 | 597 ± 190 | 0.000592 ± 0.00015 | 
AUAAAAGCGCCAGAACUACAGAAAUGUAGUUAACGAGGAAGAGGUUUAUCGAAUUUUCGGCGGAUGCCUCCAAA [G32A G40A] | 0.000781 ± 2.4e-05 | 0.000175 ± 3.4e-05 | 0.000414 ± 6.4e-05 | 0.000639 ± 8.9e-05 | 2220 ± 130 |  | 5.38e-05 ± 1.8e-05
AUAAAUGCGCCUGAACUACAGAAAUGUAGUUGACGAGGAGGAGGUUUAUCGAAUUUUCGGCGGAUGCCUCCAAA [A6U A12U] | 0.000909 ± 9.6e-05 | 0.000158 ± 2.3e-05 | 0.000426 ± 4.8e-05 | 0.000715 ± 9.1e-05 | 2840 ± 510 |  | 6.32e-05 ± 1.6e-05
AUAAAAGCGCCAGAACUACAGAAAUGUAGUUGACGAGGAGGAGGUUUAUAGAAUUUUCGGCGGAUGCCUCUAAA [C50A C71U] | 1.86e-05 ± 6.3e-07 |  |  | 1.86e-05 ± 8.6e-06 | 296 ± 82 |  | 
AUAAAAGCGCGAGAACUACAGAAAUGUAGUUGACGAGGAGGAGGUUUAUCGAAUUUUCGGCGGAUGCGUCCAAA [C11G C68G] | 2.12e-05 ± 7.1e-06 |  |  |  |  |  | 
AUAAAAGCGCCAGAACUACAGAAAUGUAGUUGACGAGGAGGAGGUUUAUCGAAUUUUCGGCGGACGCCUGCAAA [U65C C70G] | 1.37e-05 ± 3.9e-06 |  |  |  |  |  | 
